Results on one substance are retold here after publication PMC11330416.

“And” between values parts separate entries of the source, which are not always exact repeats. Equal entries are not always repeated.

Assay [1] has as its target biotinylated human angiotensin-converting enzyme 2 reference material ACE2-1 (human) (UniProt Q9BYF1). The assay can be described thus: SPR; ACE2-1 immobilised by its biotin on streptavidin on a biotin-coated Au chip (250-300 RU), blocked with 10 uM BSA; spike analyte in a twofold series of 12.5-200 nM at 50 uL/min, about 90 s association, 30-45 min dissociation; 10 mM HEPES pH 7-7.4, 150 mM NaCl, 3 mM EDTA, 0.05% Tween-20; 1:1 binding model; averages of two independent experiments. (Surface plasmon resonance follows binding to a sensor surface in real time, without labels.)

Assay [2] addresses SARS-CoV-2 Omicron BA.4/5 spike protein reference material OMIC-1 (SARS-CoV-2 (Omicron BA.4/BA.5) | human) (UniProt P0DTC2). The assay can be described thus: SEC-MALS; Waters BEH SEC 4.6 x 150 mm column (200 A for ACE2-1, 450 A for OMIC-1), DPBS with 0.02% Tween-20, pH 7.4, 0.4 mL/min; UV at 280 nm, MALS and RI detection; relative amounts of species from SEC-UV. For orientation: SEC sorts molecules by how far they enter the pores of the column.

Usually Kd stands for the concentration at which binding is half-saturated. As usually defined, the stoichiometry N is a count of units in the complex or per binding partner.

Sequence of biotinylated human angiotensin-converting enzyme 2 reference material ACE2-1 (human) (Q9BYF1 20-614): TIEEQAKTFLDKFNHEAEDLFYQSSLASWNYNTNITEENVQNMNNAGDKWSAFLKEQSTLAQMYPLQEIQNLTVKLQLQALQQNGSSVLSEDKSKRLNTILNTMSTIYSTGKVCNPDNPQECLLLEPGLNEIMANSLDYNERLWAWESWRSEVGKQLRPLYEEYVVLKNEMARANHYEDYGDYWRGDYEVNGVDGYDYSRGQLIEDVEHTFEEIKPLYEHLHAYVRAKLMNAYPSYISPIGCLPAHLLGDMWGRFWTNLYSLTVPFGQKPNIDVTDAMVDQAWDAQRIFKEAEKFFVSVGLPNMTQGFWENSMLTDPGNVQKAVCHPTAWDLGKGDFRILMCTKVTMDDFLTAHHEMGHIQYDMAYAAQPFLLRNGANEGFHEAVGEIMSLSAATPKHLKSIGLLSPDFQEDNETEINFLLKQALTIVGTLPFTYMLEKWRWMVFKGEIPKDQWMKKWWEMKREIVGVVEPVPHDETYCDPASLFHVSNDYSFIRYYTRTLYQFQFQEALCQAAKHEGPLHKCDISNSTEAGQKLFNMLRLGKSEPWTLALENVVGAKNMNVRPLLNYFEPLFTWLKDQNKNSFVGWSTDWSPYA

Substance “SARS-CoV-2 Omicron BA.4/5 spike protein reference material OMIC-1 (from UniProt P0DTC2 14-1213)” yielded a Kd in assay [1] of 4.4 nM. Also, in assay [2], the percent in higher molecular weight oligomers (SEC-UV) was 14%; the percent in the trimeric form (SEC-UV) is 82%; the stoichiometry N was 3 and 6.
